From the supplement of paper PMC9732359
± gives the uncertainty stated by the source.

experiment: protein stability index of a GFP-peptide fusion (yeast GPS) (PSI 1-4); higher = more stable; sorted into four equal gates, so the index is relative within each strain; details: doa10∆
In short: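 Plasmids isolated from each sorting gate were PCR-amplified and Illumina-sequenced, and barcodes assigned the reads to strains. The gates, four of equal size, were set by GFP/Cherry fluorescence ratio on mid-log cultures in leucine-free medium. These cultures were yeast carrying a pooled library of tiled 17-residue yeast protein peptides fused downstream of GFP on a plasmid that also expresses Cherry. The protein stability index is the sum of every gate's read frequency times its gate number.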

Row | Sequence | protein stability index
1 | DKKSCSVDDVLSALDHI [DPB4] | 3.29 ± 0.086
2 | DKQAEGTPLFTFGKKAD [YOR098C/NUP1] | 2.43 ± 0.06

same assay, conditions: pdr5∆

Row | Sequence | protein stability index
3 | ATVVSTNHSAAASTPTT [PGD1] | 3.12 ± 0.042
4 | AVDNCAICRNHIMEPCI [HRT1] | 2.79 ± 0.09
5 | AVFYTPKELGGLGMISA [PRP8] | 2.33 ± 0.13
6 | AVIESVVNQPTGKIVDV [FAS1] | 2.57 ± 0.14
7 | AVLSYYKVDAEGKVTKL [RPS31] | 2.99 ± 0.13
8 | AVNSIMALKFVSIKFTN [ECM29] | 3.12 ± 0.11
9 | AVNWQDKQGWTPLFHAL [NAS6] | 2.1 ± 0.18
10 | AVPAATPANTNNSTSNA [SWI1] | 2.99 ± 0.053
11 | AVSEKAGHQTSAESWGT [RPL4A] | 2.03 ± 0.1
12 | AWGALITTFVKRSTVPL [YML103C/NUP188] | 2.88 ± 0.072
13 | AYELRTKSKEQLASQLV [RPL35A] | 3.29 ± 0.091
14 | AYSSRFQTPFRRRREGK [RPL5] | 2.75 ± 0.068
15 | CAACHSLDRVAWRTLVG [CYT1] | 1.32 ± 0.047
16 | CAFLLTKIKDAEEDSLL [YJL039C/NUP192] | 3.4 ± 0.071
17 | CAMSGLTADARSMIEHA [PUP2] | 2.94 ± 0.18
18 | CEINYYEILLKILITYG [SRB8] | 1.54 ± 0.065
19 | CFCEDHCDKCSVVLTLQ [RPB3] | 3.15 ± 0.14
20 | CIFNFLQQQTPVTIWLF [SME1] | 1.47 ± 0.066
21 | CIKKIMENNEPAMAMED [SRB8] | 3.15 ± 0.079
22 | CILYDADESKMAKLNEC [RET1] | 1.99 ± 0.06
23 | CISLSGVPNYLVQLEPH [SSN2] | 2.09 ± 0.08
24 | CLDQMTEQFCATLNYID [SRB7] | 2.87 ± 0.047
25 | CLENARSQISEKDAKIN [SIR4] | 3.23 ± 0.081
26 | CLSDYTKKISNFNSSLH [YJL039C/NUP192] | 2.04 ± 0.057

Row | Sequence | protein stability index
27 | CPEEFAESMCQELELPG [SNF5] | 3 ± 0.074
28 | CRKCYARLPPRATNCRK [RPL40A] | 3.71 ± 0.28
29 | CRNDAVNWLAYTYLYVR [BRR2] | 3.54 ± 0.046
30 | CRVCSSHTGLIRKYGLN [RPS29A] | 1.53 ± 0.1
31 | CSFAVTKSSLNDLDYDL [YML103C/NUP188] | 3.13 ± 0.091
32 | CSHCGCVYVPNFNASLQ [SNM1] | 2.42 ± 0.11
33 | CSRCGSVTRAGNIISSD [SIN4] | 3.33 ± 0.26
34 | CTKLAVYYSKRGFKVGL [SRP54] | 2.73 ± 0.13
35 | CTNLTNRTLYELADLPK [GRR1] | 3.05 ± 0.048
36 | CVDDNSKISFIDEDKLY [SSN2] | 2.98 ± 0.1
37 | CVKNHGQSSSIQSSLMT [YCS4] | 2.67 ± 0.14
38 | CVNLSLFDARFERKNPH [SRB8] | 3.16 ± 0.061
39 | CVVLGCERRSTLKLQDT [PRE6] | 1.66 ± 0.073
40 | CWAVRADVHFLDCDGGF [RRP45] | 2.65 ± 0.14
41 | CWLSSVDVNTQKSFEQL [RPN11] | 1.28 ± 0.19
42 | CYLRWQHLRNEHGMNAP [SNF2] | 3.33 ± 0.1
43 | DAENEWNVEKFKKDFEV [RPC40] | 1.7 ± 0.21
44 | DANLNDLPETGFFENIE [IRR1] | 3.24 ± 0.13
45 | DCIIRLPVKWETTTQFK [FAS1] | 2.03 ± 0.074
46 | DDDERVEYNLFTNRSTM [BRN1] | 3.2 ± 0.12
47 | DDDQIESLKKSPIFEVL [ARP9] | 3.15 ± 0.046
48 | DDEKNDKQARKQRTKKE [SNF2] | 3.53 ± 0.11
49 | DDESEQISLNRLIDSMK [RRI1] | 3.11 ± 0.28
50 | DDHNGEVWSVSWNLTGT [YGL100W/SEH1] | 3.04 ± 0.073

Row | Sequence | protein stability index
51 | DDINKAKAVWENIIIVG [ARP9] | 2.17 ± 0.082
52 | DDISRQVARTNLDGTKA [ROX3] | 2.88 ± 0.091
53 | DDLALPYQHPPNIFPNL [ITC1] | 3.43 ± 0.12
54 | DDSDNVMSSDDENAPVA [PRE10] | 3.42 ± 0.11
55 | DDSSSDNDSLTDLESLS [SIR4] | 3.28 ± 0.043
56 | DDVRDFVIRREVTKGEK [RPS6A] | 3.4 ± 0.094
57 | DDYKDLTCSLYELYINK [IRR1] | 2.75 ± 0.12
58 | DEADKMIDLGFEDQVTN [PRP28] | 3.34 ± 0.11
59 | DEAEGRFEVINNETEQL [SMC1] | 2.56 ± 0.076
60 | DEDEDNDLDEDDIYDIS [RPN4] | 3.46 ± 0.2
61 | DEDKNFPRSRSRSRSSI [ESC2] | 3.25 ± 0.14
62 | DEDWSVRIDKALELDDT [ECM29] | 3.38 ± 0.17
63 | DEEAAGASTVMKTKTIN [PRP8] | 3.12 ± 0.071
64 | DEEETAEGQTNSISDFL [RPN1] | 3.13 ± 0.094
65 | DEKGNEIKVGKQRFQGC [ARP9] | 3.1 ± 0.17
66 | DENAPVATNANATTDQE [PRE10] | 3.33 ± 0.15
67 | DENGDKNDNGGKMNNEV [SWI3] | 3.41 ± 0.077
68 | DENKASATSKPAFSFGA [YJL041W/NSP1] | 2.98 ± 0.055
69 | DENPDLLGYTGIPTDKG [PRE8] | 2.48 ± 0.063
70 | DENTSGKISKPRFLNKQ [PRP28] | 3.4 ± 0.23
71 | DERSQGEKNFTSAHLKL [SMC4] | 3.4 ± 0.13
72 | DEVNDRSDISDSEGGLF [PCI8] | 3.08 ± 0.16
73 | DFELEISWCSLSETNGL [PRE10] | 2.93 ± 0.094
74 | DFKAKYCDSMGRPQRKM [RPB5] | 3.18 ± 0.15

Row | Sequence | protein stability index
75 | DFNQAFEGTDDNEEASV [BRN1] | 3.17 ± 0.13
76 | DFQPTELFDILSTSEDV [IRR1] | 2.42 ± 0.1
77 | DGGKTLRACAANVDQIS [YMR129W/POM152] | 2.94 ± 0.11
78 | DGLGNVVDFTSLPEELK [YMR129W/POM152] | 3.47 ± 0.1
79 | DGLIAPGVRVSGEDVII [RPB2] | 2.69 ± 0.085
80 | DGNNANYIYAGYENGML [RPN14] | 2.75 ± 0.094
81 | DGSKMLKRADYTAVDTA [RPN14] | 3.32 ± 0.11
82 | DGTSTEKTFLHLPCTIE [RPN8] | 1.78 ± 0.055
83 | DGWVKLTYKSELSKSRA [YMR153W/NUP53] | 1.88 ± 0.04
84 | DHAIVTSPTMPDYYVSI [RPT2] | 2.67 ± 0.17
85 | DHFLSMCQNPMQKPVPF [FAS1] | 3.01 ± 0.14
86 | DHGDGILLIDSEIARTY [RPN9] | 3.03 ± 0.3
87 | DHNGVPFPQYPAGMNET [ITC1] | 2.59 ± 0.11
88 | DIAFVLNNLPYKNEDVT [YCS4] | 3.08 ± 0.051
89 | DICQIDTNAPVAATITS [SRB8] | 2.45 ± 0.083
90 | DIFGANAASGSNSNVTN [YOR098C/NUP1] | 1.65 ± 0.054
91 | DIILGQNIKAPSVKRQK [PRP8] | 2.35 ± 0.078
92 | DIISGKIHSILPVMESL [YJR042W/NUP85] | 3.13 ± 0.11
93 | DIPELSFFHQSNMQKSL [RPN3] | 2.13 ± 0.067
94 | DIRDSSCQGNVIYRNSL [YMR129W/POM152] | 3.21 ± 0.087
95 | DIYSHEYKVITSLQGTY [YMR129W/POM152] | 2.43 ± 0.07
96 | DKGLLPYAIMETANEIL [RPO31] | 2.71 ± 0.19
